Experimental findings from patent US20180037631A1 (Bristol-Myers Squibb, published 2018) are described below.

Like-named read-outs stand apart in the source and are kept apart here.

Assay in all cases: cell-based or functional assay
The target in assay [1] is T1, EGFR on the surface of human tumour cells (A431, H292) (human, UniProt P00533 25-1210).
Assay [2] concerns the target T1, EGFR on the surface of human tumour …. The source holds these as a separate data set.
Assay [3] has the same target. The source holds these as a separate data set.

B1: E28 (designed binder)
10Fn3 domain: MGVSDVPRDLEVVAATPTSLLISWNPGSKSYQYYRITYGETGGNSPVQEFTVPGGVRTATISGLKPGVDYTITVYAVTDFYNPDTHEYLYNQYPISINYRTEIDKPSQ
B1: the “% inhibition of EGFR phosphorylation at 100 nM binder, cell-based assay” value (“% inhibition of EGFR phosphorylation” for short) in assay [1] was 85.3%.

B2: E30 (designed binder)
10Fn3 domain: MGVSDVPRDLEVVAATPTSLLISWAIGTIVYQYYRITYGETGGNSPVQEFTVPAGVYTATISGLKPGVDYTITVYAVTDYYDWATHEYNYHTAPISINYRTEIDKPSQ
On to B2, for which the “% inhibition of EGFR phosphorylation” value in assay [1] came to 87.3%.

B3: E25 (designed binder)
10Fn3 domain: MGVSDVPRDLEVVAATPTSLLISWGYQSGGYTYYRITYGETGGNSPVQEFTVPHDLRTATISGLKPGVDYTITVYAVTDYAYKEYQEHPISINYRTEIDKPSQ
Consider B3, for which the “% inhibition of EGFR phosphorylation” value in assay [1] turned out to be 77.1%.

B4: E112 (designed binder)
10Fn3 domain: MGVSDVPRDLEVVAATPTSLLISWDAGAVTYQYYRITYGETGGNSPVQEFTVPGGVRTATISGLKPGVDYTITVYAVTDYKPHADGPHTYHEYPISINYRTEIDKPSQ
With B4, the “% inhibition of EGFR phosphorylation” value in assay [2] was 86.2%.

B5: E17 (designed binder)
10Fn3 domain: MGVSDVPRDLEVVAATPTSLLISWQVPRPMYQYYRITYGETGGNSPVQEFTVPGMVHTATISGLKPGVDYTITVYAVTDHKPHADGPHTYHESPISINYRTEIDKPSQ
As for B5, the “% inhibition of EGFR phosphorylation” value in assay [3] was found to be 75.5%.

B6: E11 (designed binder)
10Fn3 domain: MGVSDVPRDLEVVAATPTSLLISWTPANKSYQYYRITYGETGGNSPVQEFTVPYDGTTATISGLKPGVDYTITVYAVTDHKPHADGPHTYHEYPISINYRTEIDKPSQ
Consider B6, for which the “% inhibition of EGFR phosphorylation” value in assay [3] stood at 83.7%.

B7: E16 (designed binder)
10Fn3 domain: MGVSDVPRDLEVVAATPTSLLISWQVPRPMYQYYRITYGETGGNSPVQEFTVPYDLVTATISGLKPGVDYTITVYAVTDHKPHADGPHTYHESPISINYRTEIDKPSQ
As for B7, the “% inhibition of EGFR phosphorylation” value in assay [3] stood at 97.7%.

B8: E27 (designed binder)
10Fn3 domain: MGVSDVPRDLEVVAATPTSLLISWSKGSKSYQYYRITYGETGGNSPVQEFTVPYHVYTATISGLKPGVDYTITVYAVTDYYNPATYEYIYLTTPISINYRTEIDKPSQ
In the case of B8, the “% inhibition of EGFR phosphorylation” value in assay [1] stood at 94.6%.

B9: E29 (designed binder)
10Fn3 domain: MGVSDVPRDLEVVAATPTSLLISWQPGTTHYQYYRITYGETGGNSPVQEFTVPYDLMTATISGLKPGVDYTITVYAVTDYYNPNTYEYIYLTTPISINYRTEIDKPSQ
Turning to B9, in assay [1], the “% inhibition of EGFR phosphorylation” value was determined as 87.9%.

B10: E22 (designed binder)
10Fn3 domain: MGVSDVPRDLEVVAATPTSLLISWSTGRTTYQYYRITYGETGGNSPVQEFTVPHDLDTATISGLKPGVDYTITVYAVTDSYNPATHEYKYHQTPISINYRTEIDKPSQ
Take B10: in assay [1], the “% inhibition of EGFR phosphorylation” value stood at 83.7%.

B11: E14 (designed binder)
10Fn3 domain: MGVSDVPRDLEVVAATPTSLLISWQVPRPMYQYYRITYGETGGNSPVQEFTVPYDVTTATISGLKPGVDYTITVYAVTDSYNPATHEYKYHQTPISINYRTEIDKPSQ
In the case of B11, in assay [3], the “% inhibition of EGFR phosphorylation” value was found to be 80.4%.

B12: E13 (designed binder)
10Fn3 domain: MGVSDVPRDLEVVAATPTSLLISWQVPRPMYQYYRITYGETGGNSPVQEFTVPGQVYTATISGLKPGVDYTITVYAVTDSYNPATHEYKYHQTPISINYRTEIDKPSQ
Regarding B12, in assay [3], the “% inhibition of EGFR phosphorylation” value was 86.7%.

B13: E8 (designed binder)
10Fn3 domain: MGVSDVPRDLEVVAATPTSLLISWQVPRPMYQYYRITYGETGGNSPVQEFTVPYDLTTATISGLKPGVDYTITVYAVTDSYNPATHEYKYHQTPISINYRTEIDKPSQ
In the case of B13, in assay [3], the “% inhibition of EGFR phosphorylation” value was 92.4%.

B14: E7 (designed binder)
10Fn3 domain: MGVSDVPRDLEVVAATPTSLLISWQVPRPMYQYYRITYGETGGNSPVQEFTVPYDVHTATISGLKPGVDYTITVYAVTDSYNPATHEYKYHQTPISINYRTEIDKPSQ
Consider B14, for which, in assay [3], the “% inhibition of EGFR phosphorylation” value is 89.4%.

B15: E24 (designed binder)
10Fn3 domain: MGVSDVPRDLEVVAATPTSLLISWQVPRPMYQYYRITYGETGGNSPVQEFTVPGQVPTATISGLKPGVDYTITVYAVTDSYNPATHEYKYHQTPISINYRTEIDKPSQ
In the case of B15, in assay [1], the “% inhibition of EGFR phosphorylation” value is 90.3%.

B16: E12 (designed binder)
10Fn3 domain: MGVSDVPRDLEVVAATPTSLLISWQVPRPMYQYYRITYGETGGNSPVQEFTVPHDVYTATISGLKPGVDYTITVYAVTDSYNPATHEYKYHQTPISINYRTEIDKPSQ
As for B16, the “% inhibition of EGFR phosphorylation” value in assay [3] was 76.5%.

B17: E15 (designed binder)
10Fn3 domain: MGVSDVPRDLEVVAATPTSLLISWQVPRPMYQYYRITYGETGGNSPVQEFTVPHDLRTATISGLKPGVDYTITVYAVTDSYNPATHEYKYHQTPISINYRTEIDKPSQ
As for B17, the “% inhibition of EGFR phosphorylation” value in assay [3] came to 88.8%.

B18: E9 (designed binder)
10Fn3 domain: MGVSDVPRDLEVVAATPTSLLISWEANPSRYQYYRITYGETGGNSPVQEFTVPHDLNTATISGLKPGVDYTITVYAVTDSYNPATHEYKYHQTPISINYRTEIDKPSQ
Consider B18, for which the “% inhibition of EGFR phosphorylation” value in assay [3] is 77.3%.

B19: E6 (designed binder)
10Fn3 domain: MGVSDVPRDLEVVAATPTSLLISWQVPRPMYQYYRITYGETGGNSPVQEFTVPYDVYTATISGLKPGVDYTITVYAVTDSYNPATHEYKYHQTPISINYRTEIDKPSQ
As for B19, the “% inhibition of EGFR phosphorylation” value in assay [3] is 80%.

B20: E23 (designed binder)
10Fn3 domain: MGVSDVPRDLEVVAATPTSLLISWQVPRPMYQYYRITYGETGGNSPVQEFTVPYDVITATISGLKPGVDYTITVYAVTDMMHVEYAEYPISINYRTEIDKPSQ
Turning to B20, in assay [1], the “% inhibition of EGFR phosphorylation” value stood at 81.1%.

B21: E111 (designed binder)
10Fn3 domain: MGVSDVPRDLEVVAATPTSLLISWDAPTSRYQYYRITYGETGGNSPVQEFTVPHDLVTATISGLKPGVDYTITVYAVTNMMHVEYSEYPISINYRTEIDKPSQ
On to B21, for which, in assay [2], the “% inhibition of EGFR phosphorylation” value was 85.5%.

B22: E26 (designed binder)
10Fn3 domain: MGVSDVPRDLEVVAATPTSLLISWWIGIPVYQYYRITYGETGGNSPVQEFTVPYDGKTATISGLKPGVDYTITVYAVTDMMHVEYAEYPISINYRTEIDKPSQ
Take B22: in assay [1], the “% inhibition of EGFR phosphorylation” value worked out at 75.4%.

B23: E10 (designed binder)
10Fn3 domain: MGVSDVPRDLEVVAATPTSLLISWYPGSRTYQYYRITYGETGGNSPVQEFTVPGGVRTATISGLKPGVDYTITVYAVTDYYHPATYEHEYHAHPISINYRTEIDKPSQ
For B23, in assay [3], the “% inhibition of EGFR phosphorylation” value stood at 84.7%.
